Here are results for 16 sequences from the DeepSol protein solubility set.

A short description of the series: soluble on expression in E. coli; label from the status in PepcDB or PDB records.
As to “MSQGLPLREDVPVSETWDLVDLFKDDQQYYESIDALVQQANQFHHTYATTLNSIEQINTALAELENILIALDRLSNYAELRLSVDTSNIEAQVLSAKLSTTYGKIVSQLSFVESEILELPEEILQQLEESCPYQHYIKQLIKQKPFQLSASVEQVLATLSPTLNSPYDLYGTTKMLDITFDSFEHDGTTYPVDYATFENDYEDNKDPEFRRKSFKSFSDGIRKYQHTTAATYNMQVQQEKIEADLRGFESVIDYLLHSQEVTRDMFDRQIDMIMRDLAPVMQKYAKLLQRIHGLDNMRFEDLKISVDPDYEPEISIEDSKNYIFGALSVLGDDYTNMLREAYDQRWIDFAQNKGKDTGAFCASPYFTHSYVFISWTGKMAEAFVLAHELGHAGHFTLAQKHQPYLESEASMYFVEAPSTMNEMLMANYLFNTSDNPRFKRWIIGSILSRTYYHNMVTHLLEAAYQREVYHKVDQGESLNAPTLNEIMLNVYKQFFGDAVDMTEGAELTWMRQPHYYMGLYSYTYSAGLTIGTVVSQKIKNEGQPAVDAWLETLKKGGSVSPVELANIAGVDITTEQPLKSTIQYISDLVDEVEKLTDEIEQANN”, the “soluble on expression in E. coli” value is on record as “soluble”.
Take “MAHHHHHHMLMVPMKFARAHLRRLHALQPTPTFAIECSLPFLCAWRAMKHRSLAPDDPFGERSTFSDPSDGLFAAWSGVDFNAFADAASSDEVRTAHFGPEWSRFATVGRLSVKIMREQGTPGVASAVSSKGGNKVLPRPPTAEELHSRELQARRKALEGNYATYEQYVMKELGIEDGGNEDEHMEEEMDDATEVANASEESMPLPHFMVERGEGQAHANDTNKQESTNGKPLLRTREGLQVPEPLMQMILDALGEPHGDRHLPRSDPLHWNTEVVILWVRKLEAARFALVSAAGTGEASLLEAPLMEDPSMHEAFRMARTNGKFLLHHTVPNTMFQVMRRWYLRRQEIALTFMKERQEMKNTTSISKDDVNDATFKSALEAGRAKLDELAAKVTPILIQETISQCYPYCH”: the “soluble on expression in E. coli” value is listed as “not soluble”.
Take “MIKIKENRMSQSNVIIVHGAYGHPFENWFNWMKTELESLGIECFVPQLPTPDGQELKNWLHVFNSTVSPMITHDTILIGHSLGSAFLLRWLEQANQSVFSTILAGSFIGTVGIQKFDKINESFFENGFDWHSIINKSKQFFCYHGSNDPYISRSNFNFIANNLQARKIIISQGGHLNEAAGFSSFPQLLIQLKSLLGINYGKFI”: the “soluble on expression in E. coli” value is “not soluble”.
On to “MGSDKIHHHHHHMSASSQSPKGDGLLQTISVKILKRVGKEEVAYVYLGETSRGNLVEFVESIQPPVPREKKWVLIVSTLAGCPVGCLMCDAGGFYRGKLSADEIFEQIDFLVKSRYPNGRIPSEKFKIQFARMGEPALNEAVLDVLKELPARYEAPGLMPSISTVAPCGTDSFFEDLLKIKEKHYRGKFQLQFSIHSTDEKERDQIIPVKKWSLEKISEFGKRFVKENDRKITLNFAVAQEYSLDPKVIIRVFDPEKFLVKITPVNPTYRSKENNLNSDVDVERKELLKHRNFIEELKKAGFEVILSIGELEENKIGSNCGQYVQRHLMSERKIVDGYQYV”, for which the “soluble on expression in E. coli” value is “not soluble”.
For “GPGSMSGGSTALKLQRLLEAEGAVIHSALQVRALPSMGGGMGVVLTERLAAGAVLARFPFRSMITARKARFNLAMAEVALELLEGHVATASTNNGSEGDNGSAGPCAATDVLHVIPFASRVWSEYEFETRVRSRRLRQLIDAKVEELAGALDSTETIVCYVLLMAALYGRLSKHARLRRSGADDGAADEEASVSGTEACACGDEAGPAPTLHYTHENAWMRTWIHALPAQYDNLLELVPVPEDSPPCLAQHGTEPECAARAPSVLSGNATTASPPPPLLARVSAYTKSSGWLRSYISLCRFQASVAREQQAIQRRHAKCCAALRCLQRLPRGVEVTEELADAGHGAAAPQNRVFASCGSSPSSSQQDCGRHDHGAACTLGQFLWAFNTLMSRGFYFPEATWALMPFVDYFNYALESNGTMYPQEDDPEDPGCFTNLLLAKTSRNGIGSVAPLMAAAAPRKQQWRTALRTARVGKAAVPLANYQTYEFQLVRPTCPPSEQVMLHYGAYSDVELLMWYGFTLRPSLLPAPQLAAAPEGRKKGTIPVLPPCLSDADGSLLHAAHGLRLALSQLASATTRVAYYRRWVAPLHRCDGAAASDADAAAACKTWLAALHCAYRLPLSPIANAEGKYPEATPGATWLDELLSAFAQTPAVAAPCTDAASEDEAAYRIDAWMRRWGSERWPGFAASAFPNITKGCAFGVLGLSPVLRAAVHSSFWTPTPERSSLSAGERLLVVRGLAWAELYVNMTAAAHADGWTTSSVPASAAAAECARTMSVDQWTLLRFLALESTDAALEEYVEYVSESEG”, the “soluble on expression in E. coli” value was “not soluble”.
Then “MGHHHHHHSHMRLTLLCCTWREERMGEEGSELPVCASCGQRIYDGQYLQALNADWHADCFRCCDCSASLSHQYYEKDGQLFCKKDYWARYGESCHGCSEQITKGLVMVAGELKYHPECFICLTCGTFIGDGDTYTLVEHSKLYCGHCYYQTVVTPVIEQILPDSPGSHLPHTVTLVSIPASSHGKRGLSVSIDPPHGPPGCGTEHSHTVRVQGVDPGCMSPDVKNSIHVGDRILEINGTPIRNVPLDEIDLLIQETSRLLQLTLEHDPHDTLGHGLGPETSPLSSPAYTPSGEAGSSARQKPVLRSCSIDRSPGAGSLGSPASQRKDLGRSESLRVVCRPHRIFRPSDLIHGEVLGKGCFGQAIKVTHRETGEVMVMKELIRFDEETQRTFLKEVKVMRCLEHPNVLKFIGVLYKDKRLNFITEYIKGGTLRGIIKSMDSQYPWSQRVSFAKDIASGMAYLHSMNIIHRDLNSHNCLVRENKNVVVADFGLARLMVDEKTQPEGLRSL”, with “soluble”; and “HPGEVIVLIHGLMRTYVSMKPLKAYLEAQGYQVYLYKYPSARYNIQEHGVYLNQFITTILENNPAIKIHFVTHSLGGIIVREALSKLSQKQLKHVGYLIMLAPPNQGSKLAKFSIKLFPMISYFIKPLAELSSEQTSYVHRVPVPDIKMGIIAGRFDAKVPPDYARLQGQTEQVIINNTHTFIMYDSKVKKLVLSFLEKGKFE”, with “not soluble”.
Turning to “HQCQGCGSTQLISVGVGTEQLETQLTNLFPEYKTVRIDRDSTRRKGSLEDYLEAIKNNEYQILIGTQMLAKGHHFPNVTLVGLIDVDSSLFSSDFRAPERLAQLFIQVAGRAGRASKPGEVILQTHHPE”, the “soluble on expression in E. coli” value is given as “not soluble”.
In the case of “MSLKKILVIGSKGFIGSNLVAYYEKINTIDVWGCDVISDYSSRNYFLIDASNSDFNEVFQQVAFDVCINCSGSASVPLSMINPGRDFHLNVLNVFNMLDSIRKNIPSCKFVNLSSAAVYGNPESLPIKEDTPINPLSPYGWHKLQSEILCKQFNQNFALHTCSLRIFSAYGIGLRKQLFWDWFQKINDAASMSIYGTGKESRDFIYIDDLIQCIECVVARGDFNAGIYNIANGQEIYIADAIKEFKKASGKSFEYTFTQETRPGDPINWVADISKLKTLGYQQQVTFEKGVEILMKWLQQEKEGHHHHHH” it was “soluble”; in that of “MGSDKIHHHHHHMREVHVNDIKEAVKEAIIEANCVLPREVRVAFQEALKREESPIGREVLTQILENAEIAQYYYMPYCQDTGVDVIFVFLGQDVHVVGGSLEDAINQGVREATEEGYLRASMVWDPVFERKNTKDNTPAIIHYEVVPGDRVKIVVAPKGAGSENTSRLAMLKPADGWEGVKKFILETVKFAGPNACPPFTVGVGIGGNFEYCAYLAKKALLRPVGKRHENPLIAKVEEELLEEINKIGWGPMGFGGTVTAVDVKVEMYPCHIASLPVAVNIQCHANRHAERVV”, “not soluble”; in that of “MGTVLCSCLLGDNAKVRLKLSKMLEEEASGFYPDVLPEGSVSICEVEMKGCRREFYADRRSEEIEIGTPVIVEADGGFDMGVVYSTGRIALRKLQLKGLVSEVEKLPAIMRRATEEEVREFTEIRKREPEIREACLKRIERHQLDMKLVDIDLRLDQQKLSVYYTATHRIDFRGLVRDLAGEFKARIQMVQITTREEARRTNAQGSCGCALCCSTWMQKIHSNPFAEKPQMPDSMNGDNFSFNTIGLCNRPKCCLGFSKTNGKNGNCHHGKVRQNGWPSVGTTFTVRDGNAVVEGVDQQKKSIWIRYVSTGQKRRISLDQYNNMAGKRQGGQALEHHHHHH”, “not soluble”.
In the case of “MSLGGSVEVLHWWTAGGEAKAVSALKDQFEAEGGTWIDSPVAGGGGDAAMTALRSRVIAGNPPSAVQLKGPSIQEWAAEGVVANLDDIAKAENWDKLLPALLKSVVTYEGHYVAVPVNIHRVDWLWANPAVLAKAGVAVPTTWDEFNTAAEALKAKGIIPLAHGGQPWQDATLFEVVVLGLGGPAFYHKALVELDDAALRGDTMVKVFDQMRRLRGFVDPNFSGRDWNLATAMVINGEAGFQIMGDWAKGEFLGAGKVPGKDFLCIAAPGKGFLLNSDSLVMFDVKGADKIEGQKTLARLVLGETFQRTFNTLKGSIPARQGMDLADFDACAQKSQADLTKAIAADSLEPSMAHEMAVPRSVRGAIMDVVTAHFNSSESSAEAVAHLADSIAQAREGHHHHHH”, the “soluble on expression in E. coli” value is recorded as “soluble”.
Then “MSLVSIDLPIEGRLARYDLTGRPVPFNSRDAKAFSRVAFAAAHVVADPLADNDPWLAPAIDWERTLAFRHRLWDLGLGVAESMDTAQRGMGLGWPEARELIRRSLAEARGRPDALIACGAGTDHLAPGPDVSIDDILAAYESQIEAIEAEGGRIILMASRALAAAAKGPEDYIRVYDRVLSQVKEPVIIHWLGEMFDPALEGYWGNADHMAAMKTCLDVLEAHAAKVDGIKISLLSKEKEIVMRRQLPKGVRMYTGDDFNYAELIAGDEEGHSDALLGIFDAIAPVASAALEALGSGRNGEFFELLEPTVPLSRHIFKAPTRFYKTGVVFLAYLNGLQDHFVMIGGQQSARSLVHLAELFRLADKAGALADPELATARMRRVLAMHGVEEGHHHHHH”, with “soluble”; and “MAELYVKPGNKERGWNDPPQFSYGLQTQTGGPKRTPLTKRVAAPQDGSPRAPETSGPPPVDHPPPSSKASRPPPMGSCPATGVEPPSSPVIESETLIEDVLRPLEQALEDCHGHTKKQVCDDISRRLALLREQWAGGKLSIPVKKRMALLVQELLHHQWDAADDIHRSLMVDHVTEVSQWMVGVKRLIAEKKSLSSEETKEEKFTVEPENQTIPGFQQPS”, with “soluble”.
Turning to “MNKFVRLAAIAGLLLAGASYATDTTYRIDQLPQLRQEPEHATVSERVTSRFTRSHYRQFALDDQFSAKIFDRYLNMLDYSHNVLLASDVAQFADKKYSLDKELKSGQLDTPFALFNLAQKRRFERYQYALSVLDRPMVFTGNDTIDIDRAKAPWPSSEAELNALWDAKVKYDQLNLKLAGKTDKEIKETLTKRYQSAIKRLTQSNSEDVFQLIMNAFAREIDPHTNYLSPRNTEQFNTEMSLSLEGIGAVLQMDDDYTLINSMVPGGPAAKSKTIAVGDRVIGVGQAGKPMVDVIGWRLDDVVALIKGPKGSKVRLEILPAGKGTKPRTVTLTRERIRLEDRAVKMSVKTIGKERVGVLDIPGFYVGLTEDVKVQLQKLEKQNVSSIIIDLRSNGGGALTEAVSLSGLFIPSGPVVQVRDNNGKVREDSDTDGVVYYKGPLVVLVDRYSASASEIFAAAMQDYGRALIVGEPTFGKGTVQQYRSLNRIYDQMLRPEWPALGSLQYTIQKFYRVDGGSTQRKGVTPDIVMPTGVDPAETGENFEDNALPWDRINAASYTKTGDLKPWEPELLKNHAERIAANPEFQYIQKDIERYKALKDKRNIVSLNYAQREKENRDDDMTRLTRLNERFIREGKKPLKSLDDLPKDYQEPDPYLDETVNIALDLAHKEKAQPQIASRPVAAATAGATVK”, the “soluble on expression in E. coli” value is listed as “not soluble”.
In the case of “MGSDKIHHHHHHMENAPEPIETVKKGKCKVECQNKERFILIEKENGKAMYHTKIMMDIYKFGVYEKKHEFRLSLRALFNGERIVEETHLYPIKEGDKFIGIFYGYRKPIKKPLIKYQINGTKKAYALARAYYMEFRFKAGSVFCYFKGLYRLLDKKRTNNHYNKVLFSMFTDLEQQVYKFYGKKYPEQGPLIKWILKNLK” it was “not soluble”.
